Results from the DeepSol protein solubility set.

Test: soluble on expression in E. coli; label from the status in PepcDB or PDB records

| Sequence | soluble on expression in E. coli |
| --- | --- |
| MGSDKIHHHHHHMLDAQNVSVGYDEKTPIIQQLSFQVHKGEIFGILGPNGSGKTTLLKAVSGLLSPSEGTITLHGKAIADYHSKELAQKMAVLPQTADTAFAYKVKEVVALGRYPHQKGWLASESQEDERVIREAMEQTDTWKFRNKPLQTLSGGERQRALLARALCQEPDLLLLDEPTNHLDISHQMQLLDALKDWTRTRQLTVVAILHDLNMASLYCDRVLLLNEGRMVDLNSPRQVMTEHQLANVYETKIRRNEHPTIPRPLVTFEPAAIRSKPSSPISELEVFTSEQLIKVTSSIRWKTLSSAVLGAGFKWHQTFVNRHVSKDYYCDDVEREFQTFLSNVGVDGTDALGMMTAAILEDVAITEATYESFKVRVFVTAGISNAVDAAKAHLRKRNEATVGTINTWVFIEGTLPDAAYVQALMTATEAKGRALAEKEILDPVTGTLATGTSTDSVMIASSQTGTYFPYAGTITPLGQAIGKLVYDATIQAVTDNEKRRLER | not soluble |
| MGSDKIHHHHHHMLEFLSQQKPKILIIGDFMVDNYTWCDCSRISPEAPVLIAKTLKEDKRLGGAANVYANLKSLGADVFALGVVGDDESGKFLQENLKGEFLIQKGRKTPFKNRIMAHNQQVLRLDEEDISEILLENELIALFDEKIKDFKAVVLSDYAKGVLTPKVCKAVIEKAKVLNIPVLVDPKGSDFNKYSGATLLTPNKKEALEALKFENLEGENLEKGIKKLKEDFSLRYSIITLSEAGIALFDEGLKIAPAKALEVYDVTGAGDSVIAVLAFCLANEIEIFKACELANEAAAVVVSKIGSVSVSFDEIKSFKRVDFEKKIKSKEELLVLLKQNNKKIVFTNGCFDIVHFGHIKYLDKAKRLGDVLIVGLNSDASVKRLKGESRPVNSEFQRACMLAAFYFVDFVVIFDEDTPLELISFLKPDILVKGADYKDKLVVGADIVSRVELIDFEEGFSTSKIIEKIKDKK | not soluble |
| MGSDKIHHHHHHMLEQQATIVDVNESNLNQVLEHSATLPVLFYFWSARSQHCVELEPVLDKLAQEYAGQFVLAKVDCDAEQRVAAQFGLRSIPTVYLFKDGQPLDGFQGPQPEEAVRELLKRALPKEEELKVAQAQQLIQEDKLPEAMQLLKDAWQLSQQRSDIGLMLAEVQIQIKRSEDAEAVLAAIPLQDQDTRYHSLVAQIELLKQAADTPEIQHLQQQLDADPQNADLAVQLALQLHQVSRNEEALELLMGFLKKDLAVANGSARKTLMDIMAALGTSDALAARYRRQLYSLLY | not soluble |
| MGSDKIHHHHHHMLFLMDFSMQTHAQTGDITPVVFDQFFQNYYLINPASSDSTGKIQVNIGNRSLIGLFDGVNRLYVDGNVRINHRTAMQYSRLGALVIAYNDGAFINRTRAYLRYSWSTSISERASISAGISAGMVKYTFLASQAGGGGSSTSFDGNAGLWYIRPKLKIGISYQQFTRSELTPVNQTFLLTPYINVNAVYASYLSAHVLLTTHVFYRYESGSVFDIQAAPVFLFNDLFEAGINLRYKRGVAILFGLKSIHVGTGNIRFMGSFMLSTRKLANTLDNAFELSAGYSF | not soluble |
| MGSDKIHHHHHHMLHRRKTYTIRPERLQEFTEFFHTYLYPLQISHGARLVGRWVNEAEDEVIAIWEYRDREHYEQVDRDVRGSTLRREAMKKRARLGKNLYIKSTEDFLTATGVYAPPRAIVSVTAYITNEAGEVLLVRNLHRGDTYEMPGGQVENHESILDAVKREVKEETGADVTIEGITGIYQNVSSHVLCVAFRGTYTGGELRPQEGETAEVGFFDLNRENIDTYIKREHFQLRTLDAMDPHYFPHALYKVRPYELISRYDGNAPSALSGQN | not soluble |
| MGSDKIHHHHHHMLIEIPNVFSKQEVSHLREQLDARRWIDGNQTSGAMATTRKRNQQLDKDDPVAVALGQQIMDRLLAHPQFVSAALPLQFYPPLFNRYQGGETFGYHIDNAIRSTPDGMIRTDLSATLFLSEPENYQGGELVIQDTYGQQSIKLSAGSLVLYPSSSLHQVTPVLSGERTAAFMWLQSMVRDEGQRRLLFQLDQSIQSLTAQTAAEQELFNLSGVYHNLLRRWSEL | not soluble |
| MGSDKIHHHHHHMLKITFLGTNGWFDSNTGNTPSVLIEHRNYYIILDAGNGISKLRNCISSDKPVYLFLSHFHLDHISGLHTLPLNKFSKGLYIIVPKGGTKLINQFVNVPFTVPIKKLPFKTEIIEACNKLNFLPFKATFLPLVHSSYVLGIRLEIDSKTISYCTDTSYCFNAITLAKNADLLISECSMKPLGTDDASVHLNPELASKIAKEAGAKKLMLIHFDAAKYLTLDDRKKAELAAKTIFNNSYASYDDLELQV | not soluble |
| MGSDKIHHHHHHMLKSIKSSGVTAVLDHDGFNKRIRVVRYDGAIEKALPDIVAAAKEENAEKIIVYAKQHDEPILAKQLFAPEGYLKGYYLGHSACVMVRYLSESRRQTDSYTEEQEIIEAIYRTAPRLRNDSTPVFTMRKAETNDMYQLSMLYKKVFRTYPTPVFDPAYIEKTMNANTVYYIMLDHDRLISAASAEINPELGHAEITDCAVLPEYRGHSLTSFLIEALEKEMAGEDIVHVFSLARASSFGMNAVLYHSGYQYGGRLINNCFIAEGLENMNIWCKQL | not soluble |
| MGSDKIHHHHHHMLLDHIFICVDENAPEADELVFLGLAEGTPNRHRGQGTANRRFFLPGVMLELLWVADLNELQSVTTRTLGLADRFAARKDGGSPFGFVFKPKNPRIGNSCPFPFRSYHPAYLPETLDMKVADATPRIEPLYVFIDFLPASCSTAQHHPCGIERLTSVHVTFPAQGAPSPVARMIDSLPGMSARVGREHLLELCFDDGKRGVRHDFRNRLPLIIRW | not soluble |
| MGSDKIHHHHHHMLLDLERFYQACNPSRPLIIGNASDRRYYIDFAAVRGGKIIEALQRTIARISPDEPTCQLFTGHLGCGKSTELLRLKAELEAQQFHVVYFESTHVLEMADVDVTDILLAIAGQVSESLEAMKIRLKSTYFTKLFGEIVDFLQTPIDLGVEAELSVGIAKITAKTKESPQLRRRLRDYLEPRTANILQSINQELLERATKELKTKGKKGLVVIVDNLDRVAIRPLPSGRSLPEYLFIQRGEQLRKLNCHVVYTIPLALTFSNDSAELQHRLGGGVAPKMLPMIPVRLRSGEIFPQGLAMLRQMVLARAFPDILPSDRLGLITEVFDSLETLDRLCLISGGHVRDLLGLLFDCLREQDPPFERECVDLVIQRQRDYRANAIDPQEWELIFQVVQQQRVRGDIEYHTLLRSLFVFEYRDHQGAWFAVNPVLAETEKFKSWLNDTHKQI | not soluble |
| MGSDKIHHHHHHMLLPNTRLIAAEQLLSPVDAARNRRLADTALTTAKSAGASYCDVRVGRYLRQFVITREAQVENVVNAESSGVGVRVLADGAWGFAATNTLTSDGVATATRQAVAIAKANARLGGTPVQLAPVTPAGQVSWKTPIKKNAMEVPLQDKVALLMDVNAAALNAGATFVASRMFAINEQKYFASSDGSYIDQDVHRLWLPFTVTAVDKASGKFRTRDGLSSPMGMGYEYLDGAAGEKHRLPGGLIGYGRSYDAREDAIAAAKQAREKLTAPSVKAGKYDLVIDPSNLFLTIHESVGHPLELDRVLGYEANYAGTSFATLDKRDAGYRWGSDAVTFVADKTQPGSLGAVGYDDEGVKTKQWDLVKDGILVDYQCTRDQAHLLGKTASDGCSYADSWSNVQFQRMPNVSLAPGRTPLAVADMIKNVERGLYIHGRGSYSIDQQRYNAQFGGQLFYEIENGQVTRLVEDGAYQIRTPEFWNACSAVCDQRDFRLGGSFFDGKGQPSQVSAVSHGSSTARFDGINVINTARSLG | not soluble |
| MGSDKIHHHHHHMLLVTSHDIQTALEKGIQYQKLTHLFGTLSLQETENHIILNYLPVDLKTEIGLLRAQCEISGTYKFIQDIYTMMGLKMPDMRIDLPFPKPSDPDTVAQYYAYYGDDLHFNSTHAAFSLSKNVLEIKIPSADIITHRIYEAKCIKEIERLNEQDHQIPPIIQYVQDYLELQQGIIPSMAETAFALKMPERTLRHQLQQLNTSYKQIREQIIKNKALKLMEYKEYSIEVIAEALGYSEPAAFNHAFKRWFGQSPRQYGKEFY | not soluble |
| MGSDKIHHHHHHMLNLTPSAISQSIQKLRVIFPDPLFIRKGQGVTPTAFAMHLHEYISQGLESILGALDIEGSYDKQRTITIATTPSVGALVLPVIYRAIKTHYPQLLLRNPPISDAENQLSQFQTDLIIDNMFCTNRTVQHHVLFTDNMVLICREGNPLLSLEDDRETIDNAAHVLLLPEEQNFSGLRQRVQEMFPDRQINFTSYNILTIAALVANSDMLAIIPSRFYNLFSRCWPLEKLPFPSLNEEQIDFSIHYNKFSLRDPILHGVIDVIRNAF | not soluble |
| MGSDKIHHHHHHMLNYSLRPENRGKNLESSWQYMFKTYPYLKPWIDSLKQNQALKDTFIYSPDHVKLHAYYVASSRPTAKTAVIVHGYTDNAIRMMMIGYLYNKKLDFNILLPDLRDTGLSGGNAIQMGWLDRKDVTQWMEVANRIYGDSTSMVVHGISMGAATTMMVSGEPQPDYVKCFVEDCGYTSVWDQFSKELKAQFGLPQFPLMYTADWLCQLEYGWGFKEASALKQVARCHLPMFFIHGDKDDYVPTWMVYKLYEAKPQPKALWIVPEADHAHSYLFNTEEYTQKVKAFVDKYIQ | not soluble |
| MGSDKIHHHHHHMLPLSAEEFARLVPILRQAGLSHVTHIHELAGGLSNHNYHIQTPTTQYALRLNAEAADRFCSREQELFYWRNLAKAKLAPELIWTSCDHRYYLSAFIESQDIASLLNASQIPDMLGDWADVRGALNWKNLAYQCSAAEFTLGEQRLQTWLQAHAENFECALHQACMPQSFAAQLTPLALLESQCPNRVHSLLLQLLQRLRLQSAGPYHISVTEQWQQYHQQLLAFAATDKGSAWQTRLDLLLGLQPQIHRWTTVLADCLVAAQFCHRDLNPHNLLLKDNQLYCIDFEYATASHPLCELAVVLATHRLTPVQRHILVRQYLADHPGVTSTAITAVPAAIDMYWVFALYWALLIAAQTDAERQQEYLAWFDSFWSLVSQDA | not soluble |
| MGSDKIHHHHHHMLPSQRHAFSIPEDVIYLDAAYMSPIPNIATEAGCDGVLVKAAPWDMTINSYYDEVERVRELAASFVGASIDDVGVIPATSYGIAVAAANVHVTPGSVIMMMDNEHTSHRYAWYELAEKKGATVVTVPRRPDQEWGSALAAAIKGSTVPVSVVAGTIVHWFEGMSVDIEVVADAAHAVGAALVMDGTQWVGAVPFDVSRIRPDFLSFATYKFLLGPYRLAFLYADKKWQEAGKPIEFHSWNRKGGERPDFYLETMPDYLPGARRFDMGERSDFAVLPIAIRSLELLQSWGSTAVFERLVHLNELIWKEAEARGFEGPRKDLRAPHISVIELGQRFRPDFARNLKDNKAFVTVRGTKMRITPHVYNEEHDIRRLFELVDSLTR | not soluble |
| MGSDKIHHHHHHMLQTDNLIPDFINKQITQAVMSLRSGNVVAFPTETVYGLGADISQPQAIQKIFEIKGRPSSHPLIVHFANLSELEFWAENIPATAWILAQHFWPGPLTLILTKSNHIPLSVTGGQETVGLRIPRHPIALKLLEQLGSCKALAAPSANRFGFVSPTIADHVKNAFNDKIEVILDGGPCEVGLESTIVSCIDKDVTILRPGGISVLSIENLLQQKVSVKSQNKIRTPGSLSSHYATATPLEICQSSESLFSRSFDLLQQGIRTAVIIRSIHLIPMLNSDDKFHYILMPNDPVAFGKDLYATLRKLDDANFERILVEAPPDDLEWLAVADRLSRASYSFTSK | not soluble |
| MGSDKIHHHHHHMLRLSALGDVCNLVPTIRVLQRLWPDARITWIIGKGEHSLLAGLSGVEFIVYDKATGLAGMREVWRQLGDTRFDVLLHMQQALRASVLSLGLKADLRIGYDKARAKDWQHWFTHRQLTPHPRAHVLDSFLDFARLLGGAERVDAEPLRWDLAIPDTAYQEAARVTGDAPYIVISPCANPRLRNFRNWSAEGYAAVISHAWQEHGLRTVMTGGGSTQEQEMGARIRALCAEEAVIDAIGATSLKGLLAMLDRARMVIAPDSGPVHMANALRTPTLGLYATTNPERAAPYCWRDFVVDRYPDAVRRYLHKSPEAITWGARVRHPDAMSLIHADDVIAQFDALLNAAPSASSRPEPDHET | not soluble |
